Measurements: article doi:10.1101/2024.06.13.598777, “Acetylation of the yeast Hsp40 chaperone protein Ydj1 fine-tunes proteostasis and translational fidelity” (bioRxiv, 2024)

Target: T1, Ssa1 (purified) (yeast, UniProt P10591 1-642)
T1 construct: Ssa1, yeast Hsp70; also called Hsp70; source: isolated as previously described [51]
Experiment: BLI; Ydj1-biotin (5 ug/ml) on streptavidin biosensors, Ssa1 1 uM in solution, 23 °C, 25 mM Hepes pH 7.5, 50 mM KCl, 2 mM DTT, 5 mM MgCl2, 0.5 mM ATP, 0.02% Tween-20; Octet R4; reference sensor subtracted
Conditions: both partners purified

T1 sequence (P10591 whole entry): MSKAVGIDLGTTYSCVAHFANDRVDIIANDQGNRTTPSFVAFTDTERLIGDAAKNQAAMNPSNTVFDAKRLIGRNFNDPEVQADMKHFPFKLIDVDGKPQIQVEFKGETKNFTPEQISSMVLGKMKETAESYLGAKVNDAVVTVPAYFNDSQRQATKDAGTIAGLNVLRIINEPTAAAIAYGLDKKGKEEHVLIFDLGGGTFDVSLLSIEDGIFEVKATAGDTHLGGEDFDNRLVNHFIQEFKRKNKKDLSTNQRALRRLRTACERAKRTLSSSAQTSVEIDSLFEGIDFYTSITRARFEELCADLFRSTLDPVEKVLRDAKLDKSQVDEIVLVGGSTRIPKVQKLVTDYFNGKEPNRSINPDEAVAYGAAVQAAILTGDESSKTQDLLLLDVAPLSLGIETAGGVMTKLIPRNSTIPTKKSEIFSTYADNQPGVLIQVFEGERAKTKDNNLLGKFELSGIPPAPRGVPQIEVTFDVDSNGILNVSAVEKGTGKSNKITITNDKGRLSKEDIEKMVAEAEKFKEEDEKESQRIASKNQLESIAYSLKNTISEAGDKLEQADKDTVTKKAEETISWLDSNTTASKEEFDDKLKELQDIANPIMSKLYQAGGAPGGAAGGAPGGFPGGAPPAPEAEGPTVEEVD

Row | binding result | Binder
1 | binds | His-tagged Ydj1 wild-type, biotinylated (natural protein, yeast, UniProt P25491 1-409, looked up, biotin (labeled with a 1.5-fold excess of NHS-PEG4-Biotin), Ydj1, yeast Hsp40; YDJ1 gene PCR amplified from yeast genomic DNA into pRSETA; A fragment lacking the J-domain (delta J) co-purifies with the recombinant protein; also called Ydj1-biotin; HIS-Ydj1; source: E. coli Rosetta (DE3), purified (Ni-sepharose, Superdex 200)) MVKETKFYDILGVPVTATDVEIKKAYRKCALKYHPDKNPSEEAAEKFKEASAAYEILSDPEKRDIYDQFGEDGLSGAGGAGGFPGGGFGFGDDIFSQFFGAGGAQRPRGPQRGKDIKHEISASLEELYKGRTAKLALNKQILCKECEGRGGKKGAVKKCTSCNGQGIKFVTRQMGPMIQRFQTECDVCHGTGDIIDPKDRCKSCNGKKVENERKILEVHVEPGMKDGQRIVFKGEADQAPDVIPGDVVFIVSERPHKSFKRDGDDLVYEAEIDLLTAIAGGEFALEHVSGDWLKVGIVPGEVIAPGMRKVIEGKGMPIPKYGGYGNLIIKFTIKFPENHFTSEENLKKLEEILPPRIVPAIPKKATVDECVLADFDPAKYNRTRASRGGANYDSDEEEQGGEGVQCASQ
2 | binds | His-tagged Ydj1 K37R, biotinylated (natural protein, yeast, UniProt P25491 1-409, looked up, biotin (labeled with a 1.5-fold excess of NHS-PEG4-Biotin), Same construct as m5 with the mutation; source: E. coli Rosetta (DE3), purified (Ni-sepharose, Superdex 200)) MVKETKFYDILGVPVTATDVEIKKAYRKCALKYHPDRNPSEEAAEKFKEASAAYEILSDPEKRDIYDQFGEDGLSGAGGAGGFPGGGFGFGDDIFSQFFGAGGAQRPRGPQRGKDIKHEISASLEELYKGRTAKLALNKQILCKECEGRGGKKGAVKKCTSCNGQGIKFVTRQMGPMIQRFQTECDVCHGTGDIIDPKDRCKSCNGKKVENERKILEVHVEPGMKDGQRIVFKGEADQAPDVIPGDVVFIVSERPHKSFKRDGDDLVYEAEIDLLTAIAGGEFALEHVSGDWLKVGIVPGEVIAPGMRKVIEGKGMPIPKYGGYGNLIIKFTIKFPENHFTSEENLKKLEEILPPRIVPAIPKKATVDECVLADFDPAKYNRTRASRGGANYDSDEEEQGGEGVQCASQ
3 | binds | His-tagged Ydj1 K23Q, biotinylated (natural protein, yeast, UniProt P25491 1-409, looked up, biotin (labeled with a 1.5-fold excess of NHS-PEG4-Biotin), Ydj1, yeast Hsp40, acetyl-mimic mutant; Same construct as m5 with the mutation; source: E. coli Rosetta (DE3), purified (Ni-sepharose, Superdex 200)) MVKETKFYDILGVPVTATDVEIQKAYRKCALKYHPDKNPSEEAAEKFKEASAAYEILSDPEKRDIYDQFGEDGLSGAGGAGGFPGGGFGFGDDIFSQFFGAGGAQRPRGPQRGKDIKHEISASLEELYKGRTAKLALNKQILCKECEGRGGKKGAVKKCTSCNGQGIKFVTRQMGPMIQRFQTECDVCHGTGDIIDPKDRCKSCNGKKVENERKILEVHVEPGMKDGQRIVFKGEADQAPDVIPGDVVFIVSERPHKSFKRDGDDLVYEAEIDLLTAIAGGEFALEHVSGDWLKVGIVPGEVIAPGMRKVIEGKGMPIPKYGGYGNLIIKFTIKFPENHFTSEENLKKLEEILPPRIVPAIPKKATVDECVLADFDPAKYNRTRASRGGANYDSDEEEQGGEGVQCASQ
4 | binds | His-tagged Ydj1 K23R, biotinylated (natural protein, yeast, UniProt P25491 1-409, looked up, biotin (labeled with a 1.5-fold excess of NHS-PEG4-Biotin), Same construct as m5 with the mutation; source: E. coli Rosetta (DE3), purified (Ni-sepharose, Superdex 200)) MVKETKFYDILGVPVTATDVEIRKAYRKCALKYHPDKNPSEEAAEKFKEASAAYEILSDPEKRDIYDQFGEDGLSGAGGAGGFPGGGFGFGDDIFSQFFGAGGAQRPRGPQRGKDIKHEISASLEELYKGRTAKLALNKQILCKECEGRGGKKGAVKKCTSCNGQGIKFVTRQMGPMIQRFQTECDVCHGTGDIIDPKDRCKSCNGKKVENERKILEVHVEPGMKDGQRIVFKGEADQAPDVIPGDVVFIVSERPHKSFKRDGDDLVYEAEIDLLTAIAGGEFALEHVSGDWLKVGIVPGEVIAPGMRKVIEGKGMPIPKYGGYGNLIIKFTIKFPENHFTSEENLKKLEEILPPRIVPAIPKKATVDECVLADFDPAKYNRTRASRGGANYDSDEEEQGGEGVQCASQ
